In US20020128438A1, “DNA cassette for the production of secretable recombinant trimeric TRAIL proteins, tetracycline/ doxycycline-inducible adeno-associated virus vector, their combination and use in gene therapy” (priority 2000, published 2002):
*1 amine or outer side, *2 acyl side, *3 side chain or, on linkers, in order; H or OH if unused. Where a SMILES comes first, the peptide text is derived from it. Bridges are numbered along the chain shown (N, C = ends). Roman numbers before positions name the chains, in order. [ ]: non-standard residue; d: D form. Actinocin(9to1) = Cc1c2oc3c(C)ccc(C(=O)[*:1])c3nc-2c(C(=O)[*:2])c(N)c1=O; NMeV = CN[C@H](C(=O)O)C(C)C; Sar = CNCC(=O)O

Experiments:
[1] = test system: monkey; settings: cited from earlier work
[2] = test system: mice; settings: systemic delivery; cited from earlier work
[3] = test system: various cancer cell lines

In the case of “TRAIL: TNF family member, type II transmembrane apoptosis-inducing ligand”, the cytotoxicity in monkey [1] is given as “no detectable cytotoxicity” and the cytotoxicity in mice [2] is given as “no detectable cytotoxicity”.
In the case of `Cc1c2oc3c(C)ccc(C(=O)N[C@@H]4C(=O)N[C@H](C(C)C)C(=O)N5CCC[C@H]5C(=O)N(C)CC(=O)N(C)[C@@H](C(C)C)C(=O)O[C@@H]4C)c3nc-2c(C(=O)N[C@@H]2C(=O)N[C@H](C(C)C)C(=O)N3CCC[C@H]3C(=O)N(C)CC(=O)N(C)[C@@H](C(C)C)C(=O)O[C@@H]2C)c(N)c1=O` [ActD, Actinomycin D] (I: T[dV]P[Sar][NMeV] / II: T[dV]P[Sar][NMeV]; ester I:1-I:C, II:1-II:C; linker I:N-II:N via Actinocin(9to1)), the “concentration at which enhancing activity of ActD was obtained” value ([3]; enhancement of TRAIL-induced apoptosis) is reported as 100 ng/mL and the “effect of ActD on TRAIL-induced apoptosis” value ([3]; various cancer cell lines) is reported as “greatly enhanced”.
